According to patent US20220363718A1:
Blank lines part the entries; values can stand above or below the binder they belong to. *1 amine or outer side, *2 acyl side, *3 side chain or, on linkers, in order; H or OH if unused. Bridges are numbered along the chain shown (N, C = ends). [ ]: non-standard residue; d: D form. TATA = O=C(CC[*:1])N1CN(C(=O)CC[*:2])CN(C(=O)CC[*:3])C1; Trp(1-Me) = Cn1cc(C[C@H](N)C(=O)O)c2ccccc21; Arg(Me2a) = CN(C)C(=N)NCCC[C@H](N)C(=O)O; Phe(4-F) = N[C@@H](Cc1ccc(F)cc1)C(=O)O; tBuAla = CC(C)(C)C[C@H](N)C(=O)O; NMeD = CN[C@@H](CC(=O)O)C(=O)O; NMeA = CN[C@@H](C)C(=O)O

Target: Biotinylated human TSLP (human)
Sequence (chain, as listed by the source limits assumed): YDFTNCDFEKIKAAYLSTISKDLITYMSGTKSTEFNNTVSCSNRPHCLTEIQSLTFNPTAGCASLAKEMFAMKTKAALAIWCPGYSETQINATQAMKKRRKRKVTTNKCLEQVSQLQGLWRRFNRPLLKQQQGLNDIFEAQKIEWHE
Assay: SPR, biotinylated hTSLP on streptavidin chip

- Kd: 6 nM
B1: Example 13 (peptide)
peptide: CQXLEDCXXGXC
modifications: not fully specified; N-term acetyl; CQ[TrpMe]LEDC[TrpMe][ADMA]G[4-FPhe]C as printed; 3 Cys on TATA

- Kd: 2.7 nM
Binder: Ac-C[NMeA][Trp(1-Me)][tBuAla]Q[NMeD]C[Trp(1-Me)][Arg(Me2a)]G[Phe(4-F)]C-NH2 (linker 1-7-12 via TATA) [Example 5]
